A short description of this series: soluble on expression in E. coli; label from the status in PepcDB or PDB records.
In the case of “MLKAMEHPAYSQLRPVTPSAGVVLCPNPGYSSLEGTNSWVVRAEGDRCSIVIDPGPADEGHLNVLHGKAETVGLVLLTHRHHDHADGAERFRQLTGAAIRAQQAPYCHGGDVLRDGEIIAIDGVTPQLEVVFTPGHTSDSVCFFVWSGVPHESNLEGIITGDTIAGRHTTMISETDGDLGQYLNTLALLEKRGKGIALLPGHGPDGDDVASFAHWYIERRMQRLEQIKEAIAQRGADVPIKELIDAVYDDVDPVLRGAAEQSTRVALRYLAQQQ”, the “soluble on expression in E. coli” value is “not soluble”.

For “MAVSFKVKERKVMINGQPAKIRYAQTLKTGDMDLSEICDLTSKISAVSEGDVRSIINTVTGLVITGLKQGRAISLGELGRFRISLSSKAAKEGEEFTVENIRRARVLFLPGGDIRRACRQIRLKGINMLRPGEQQGGTPSVPDSPEGGGEQGSGGGGL”, the “soluble on expression in E. coli” value is “not soluble”.

Turning to “MSLGKDIKVGYNWELSGNVSSYGNSMKNGADLAVKEINAAGGVGGKKLKVLSQDNKSENAEAATVATNLVTKGANVIIGPATSGAAASSTPKVNAAAVPMIAPAATQDNLVYGSDGKTLNQYFFRATFVDNYQGKLLSQYATDNLKAKKVVLFYDNSSDYSKGVAKSFKESYSGKIVDSMTFSAGDTDFQASLTKLKGKEYDAIVMPGYYTETGLIVKQARDLGISKPVLGPDGFDSPKFVQSATPVGASNVYYLTGFTTQGSTKAKAFHDHYVKAYGEEPSMFSALSYDAVYMAAKSAKGAKTSIDIKKALAKLKDFKGVTGKMSIDKNHNVVKSAYVVKLEDGKTSSVNIISAKEGHHHHHH”, the “soluble on expression in E. coli” value was “soluble”.

As to “ESPEIQVEEQSFNFGLIPEEKGSVGHSFKFRNSGTAPLLITRVMADCGCTTPTWPEEAIAPGEEAEIRVLFDPVGRSGAFVKRIRVFSNAQSSPLE”, the “soluble on expression in E. coli” value is reported as “not soluble”.

“MLELKSDDREYTANMLLLNDTDKTVKHKTVGEFYQDLIKQYANESKCGNRLIYKSSYNSLYTFTKGNLDIPFSAINPSWLCNYEKWLRSKGNKETTMSLMLRTLRSTYNKAIENKYARKSDYPFNEYKIGKFDVSTEKRAIAKADIMKLTADISSVGKRQYVQLSKDIFMFSYLCGGINFTDIANLTSKNIVDGKRLHYIRQKTGKLIKLGLSDAALRIIERYAPDSHGYLFPILNVEVHKTALQKQNRIHKILSKVNSNLKLIATQSGLDINLTTYVARHSFATVLKKSGVNIALISEALGHSDLATTQIYLDSFDNEQIDDAMKNLL”: the “soluble on expression in E. coli” value is “not soluble”.

In the case of “LPAYEKQVEVVEKDLEQVHICLGTKAFPQNHPRRFEVYLVNTLLGGSMSSRLFQEIRERLGLAYSVYSYVVSHTDAGSLVVYVGTSPEKLDDVLDITVAELKRLKTELVPLPELESAKEQIKGSIYLSLESSDNRMTKLAKNEIYFGRYIPIHELADGFDSVTSRGILELAGEIFDERYLTLALMGKIDSAAFDVSRLAL”, the “soluble on expression in E. coli” value is “not soluble”.

On to “MFTGLVEAIGVVKDVQGTIDNGFAMKIEAPQILDDCHTGDSIAVNGTCLTVTDFDRYHFTVGIAPESLRLTNLGQCKAGDPVNLERAVLSSTRMGGHFVQGHVDTVAEIVEKKQDGEAIDFTFRPRDPFVLKYIVYKGYIALDGTSLTITHVDDSTFSIMMISYTQSKVIMAKKNVGDLVNVEVDQIGKYTEKLVEAHIADWIKKTQA”, for which the “soluble on expression in E. coli” value is recorded as “soluble”.

On to “MLSGTLFHKDVSIYSLFEELADKLNQKIEKRERLVKASRDVTYQSKKAIYLLHRAADEDLFSICSSAKEQLENIRQLICKLLLPELSAEEYFRFHSVFTIALQEYTEARLFLSYLSEGRALTLDEINAEISQQWQSLLENSEEARIY”, for which the “soluble on expression in E. coli” value is given as “soluble”.

Turning to “GASIHDPISAGRYFAQRLRANPNEVFAVLFLDNRHRAISFEELFHGTINGAEVHPREVVRRALTLNAAAVIVGHNHPSGNREPSPADQMITQRLKNALDLIDVRLVDHFVIGDGAPVSFAEHGWL”, the “soluble on expression in E. coli” value was “not soluble”.

For “QSRERLVKWLQDAYAMEKEAETMMAAMASRIEHYPELKRRIEQHVEETQQQSAGVQRCLELLNGSIPTAKGMLSSVLASMHAAGNSMMTDEVTKGVGISYAFEHLEIASYRALVVAARSAGEQEVAQICEDILQQEIEMAEWLIEHQEAIVVAFLE”, the “soluble on expression in E. coli” value was “not soluble”.

As for “MSDHAEEHASINTKKTVENITDVRKTAKTSIDWTKPSGGEYPDIKQKHVWIDVNVKEQKAYIKEGSNTIYTMMISSGLDQTKDDATPKGTFYVEPERGEWFFSEGYQEGAEYWVSWKNHGEFLFHSVPMTKDQKVIKTEAEKLGTKVSHGCIRLTIPDAKWVYENIPEHTKVVISLEHHHHHH”, the “soluble on expression in E. coli” value is listed as “not soluble”.

Regarding “MGSDKIHHHHHHMDARSLISLIPSLSAYKWYGKVTRVIGLTIEAKGPQASIGELCYILVGKQGTKVMAEVVGFKEERVLLMPLNGTAEIAPGSLVEGTGRPLQVKVGYSLIGHVIDGCGRPLTGEALPNGLTPYPTDNPPPNPISRPRIKEAMHLGVRAIDGLLTVGKGQRVGIFAGSGVGKSTLLAMLAKNAAADLNIIALIGERGREVKDFIERDLGEDGLRRSIIVVATSDQPALMRIKGAMTATALAEYFRDQGLHVNLMMDSVTRFAMAQREIGLAVGEPPTTKGYTPSVFALLPKLLERAGTNGKGSITGFYTVLVDGDDLNEPISDTVRGILDGHFVLDRELANKGHYPAINILKSVSRVMNDIVTDEQKRAAEHVRSLLSVYKESEDLINIGAYKRGSSKQIDEAIERQPEVISFLRQNTDEVAIAEHSIQQLIQAFGKGD”, the “soluble on expression in E. coli” value is reported as “not soluble”.

In the case of “MECAEKVEAEIPGQAGRRAGKPSRTYYLEVYGCSLSEFDALIMASRLEEAGYRRVARPEDADVILVNTCAVRLDTEQRIAERLEKLRLQLPDRKYVVAGCLVKARPGLVARLVPEASLLAPQAVERVLDAVDALESGRRLVVLDGRRDTRSMPQLPITDAVVTVMIQEGCLGDCSFCITKVARRQVRSYSPRVIVERVREAVEKGAREIRLTGTDVAVYGVDLPGKPNLADLVAAILEKVEGDYRIRVGMMTPDQVEPYLDSLLDVYRDERVYKYFHLPVQSGDDEVLKIMKRNYTVSEYKAIHRRIKSRFPDAMIATDIIVGHPGETWEAFWNTVRLVEELRFEKVHLAQYSLRPHTEAASMEQVPDSVKKERSRILGKIVAEIGLEINGSYVGRRVRALVTERSWREGSMTGRLDNYTPIILPYEERAMGRWVYAEVEEATFFDLRSSKFEPAP”, the “soluble on expression in E. coli” value is “soluble”.

“MGSDKIHHHHHHMSILTDSNETSHLPDSCSSTLGKQNFHNSLFSVPEAFEFSLVVVNDLVFAKRGKYLTDAELVVMRGALNNLDYEEIAHNSNYTVNYLQRCVAPLLWDTLSETIGNGDRVGKKKLRQILEELNQKYHIQSPFEPYLTLSSSDNSSLIIRGQLPEISNFYGRIHELNLLKELIFKHRCITLVGVAGVGKSSLATKLIVELSKKPRRQFDALIWKSLSHIPSLPELTHELIALIQPSLIPELPLSSSTHNLISILIQQLQSCPCLLVLDGFEALFQRSNFTERLEYSIFLNRLIDEASPSCLLLTTRILPDELNILIKNNPSTIKVFKVNGLDIDAATQLLSDLGLQQEENYQSLINTYWGNPLELKNVVSRIERFFSGSTLKFLENKTTLISLQLQTMLNEMFGQVLSDLQRRIMICITEDLVLTSQPISFAKLLTRLRQLPNLPVSTSELITDLEKLERLSLIESGKDNTTKEITFTLQPVVKKYINTDPAGLVHPSEQFTPYSTTTQKNTHAH”: the “soluble on expression in E. coli” value is “not soluble”.

Turning to “MDTSTNLDIGAQLIVEECPSTYSLTGMPDIKIEHPLDPNSEEGSAQGVAMGMKFILPNRFDMNVCSRFVKSLNEEDSKNIQDQVNSDLEVASVLFKAECNIHTSPSPGIQVRHVYTPSTTKHFSPIKQSTTLTNKHRGNEVSTTPLLANSLSVHQLAAQGEMLYLATRIEQENVINHTDEEGFTPLMWAAAHGQIAVVEFLLQNGADPQLLGKGRESALSLACSKGYTDIVKMLLDCGVDVNEYDWNGGTPLLYAVHGNHVKCVKMLLESGADPTIETDSGYNSMDLAVALGYRSVQQVIESHLLKLLQNIKE”, the “soluble on expression in E. coli” value is given as “soluble”.

With “MTEQQKFKVLADQIKISNQLDAEILNSGELTRIDVSNKNRTWEFHITLPQFLAHEDYLLFINAIEQEFKDIANVTCRFTVTNGTNQDEHAIKYFGHCIDQTALSPKVKGQLKQKKLIMSGKVLKVMVSNDIERNHFDKACNGSLIKAFRNCGFDI”, the “soluble on expression in E. coli” value was “not soluble”.

Consider “MGSDKIHHHHHHMLTGHHAPVRAYDAHASSNSSTGFRGRLRLSVATTERQCSMIIAHLSDLHIRETGKPFASGNVDCTARAAQAFERVANMTPRPDMMVVTGDLADSGQIGEYQLLKELTEGLPFPVHLALGNHDIRENFLAVFPEKKGPGGFVQFCVEHDKLRVIGLDTLVEGEGLGRLCSERLSYLRDCLQERPNTSTLILLHHPPFAFGGGIYDAVRLIDGARELGEIITANKQVVRLLCGHHHRAIDCLWNGTLASVAPSVVSSCHLQLGDVRVFKNINEPPAFKLHVLVPESGFVSHNVFVEDFGPAYENIPDPNYQALASMRKQTALAASR”, for which the “soluble on expression in E. coli” value was “not soluble”.

As to “MIDGAEVSVSRGKNNPFYFNSDRWFHTLFRNQFGHLRVLQRFDQRSKQMQNLENYRVVEFNSKPNTLLLPHHADADFLLVVLNGRAVLTLVNPDGRDSNILEQGHAQKIPAGTTFFLVNPDDEENLRIIKLAVPVNNPHRFQDFFLSSTEAQQSYLQGFSKNILEASFDSDIKEISRVLFGEEGQQQQQGQESQQEGVIVELKREQIRELTKHAKSSSKKSLSSEDQPFNLRNQKPIYSNKLGRWFEITPEKNPQLRDLDMFIRSVDMKEGSLLLPHYNSKAIVILVINEGKANIELVGQREQQKQQEEQEESWEVQRYRAELSEDDVFIIPATYPVAINATSNLNFFAFGINAENNQRNFLAGEKDNVISEIPTEVLDVTFPASGEKVQKLIKKQSESQFVDAQPEQQEREEARKGGKGPFVY”, the “soluble on expression in E. coli” value is given as “soluble”.

Consider “MKVLKCGVMLLSILFVSQLHVYAEENRWTWPVEGQISDYFGTRHGKHYGIDVAAPIGTPVVAIQDGKVTRSYYSSSYGNVVFIKHGEYEAVYAHLNKRYVNQGDYISKGEKIGEVGNTGESRGAHLHLELHQGRWTMAKKNAMNPLLVLSEQRNEVVSSSLYVVQKGDTLVSIARKFSMTLKEIKEKNGLQQELIYPNQQLYVK”, for which the “soluble on expression in E. coli” value is “not soluble”.

Regarding “MTSPFKVVAVSGGTYRPSRTLVLTQALIAELGQSLPIDSRVIELTDIAAPLGATLARNQAPAELQAVLDEIESADLLLVASPVYRGSYPGLLKHLFDLIDLNALIDTPVLLAATGGTERHALVLDHQLRPLFSFFQAITLPIGVYASEADFDNYRIVSEPLKARIRLAAERAAPLFGGRSELLKIALEHHHHHH”, the “soluble on expression in E. coli” value is “not soluble”.

Regarding “MGSDKIHHHHHHMIQTYILKIQSLKWAQREMLKTTLITDTLGHVTSTEPTTTAHVPLPDGSSTPVQIWASDNKDSQLVMLWPGFGMGGYYYRPLAAALNKAGFHVAIGELRGQGQSSAKASRKSQWGYHDLASVDFPLQIAAAKKALDLEEGHPMRFLSHSMGGQISCLFAARPEAEKYNLRAIFGVGAGSPFRPTFSPKMGKRLGLGAVLLGGIGGHIVGFWPGKVLGKDLVGYGRQSGTHMREWRRFHKHNSLDDLTAQDINYVEVMKKVSIPITFSRCPDDEDCPQASIDGLASFVPAAQIKMIEIPEALGHNRWAREPESTVKLFLEQAL”, the “soluble on expression in E. coli” value was “not soluble”.

In the case of “MSLTAENILNRNFEANKPNQKWFTDISYLNYGKGQKAYISAIIDRYDLSIIVYKVSKRNDLKLVMDILKLALQNNDASNTILHSDRGFQYTSKHYKNYLDTHNVKISMSKAGSCLDNQPIEAFWGTLKSEYYYRNQFSTYEDLETGISEYINYYMNKRYVPKFDGLTPNEYRNVSEGHHHHHH”, the “soluble on expression in E. coli” value was “not soluble”.

Values taken from the DeepSol protein solubility set.
